The values that follow are results of earlier work, collected in article PMC7496540.

The target of series [1] is λ exonuclease (Escherichia phage lambda) (UniProt P03697).
Series [2] addresses SSB C-terminal peptide C-terminal nine residues (Escherichia coli) (UniProt P0AGE0).
Chain of UniProt P0AGE0 (P0AGE0 whole entry, looked up): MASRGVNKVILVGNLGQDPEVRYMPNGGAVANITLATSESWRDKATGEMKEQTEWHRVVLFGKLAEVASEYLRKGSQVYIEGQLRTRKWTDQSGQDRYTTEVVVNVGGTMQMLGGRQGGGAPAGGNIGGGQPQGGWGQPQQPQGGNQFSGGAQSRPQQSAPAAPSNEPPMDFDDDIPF

Chain of UniProt P03697 (P03697 whole entry): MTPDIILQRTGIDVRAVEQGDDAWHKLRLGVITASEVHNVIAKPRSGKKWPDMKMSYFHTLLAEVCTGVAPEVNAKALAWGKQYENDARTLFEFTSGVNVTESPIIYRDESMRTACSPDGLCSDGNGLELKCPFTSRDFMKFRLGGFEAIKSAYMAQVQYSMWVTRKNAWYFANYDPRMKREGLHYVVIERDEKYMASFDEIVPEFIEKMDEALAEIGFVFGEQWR

Consider Redβ (from UniProt P03698), for which the values for the Kd in series [1] and in series [2] were 7.9 µM and 10 µM, respectively.

In general, Kd refers to the equilibrium constant for the complex coming apart.
